Laboratory results from PMC7138851, “Quantitative assessment of the determinant structural differences between redox-active and inactive glutaredoxins” (Nature Communications, 2020).

Legend:
Experiment in all cases: purified protein, by the assay type
Set-up in all cases: GSSCys oxidoreductase assay, steady-state kinetics, coupled NADPH consumption at 340 nm, pH 8.0, 25 °C
Conditions in all cases: pH 8.0; 25.0 °C
[1] = substrate: N[C@@H](CCC(=O)N[C@@H](CS)C(=O)NCC(=O)O)C(=O)O
Description: (§1) Steady-state kinetics of wild-type and mutant ScGrx7 and HsGrx5^C122S in the GSSCys and [compound left out] assays were determined spectrophotometrically by monitoring the consumption of NADPH at 340 nm and 25 °C using a thermostated Jasco V-650 UV/vis spectrophotometer[11],[19],[25]. Fresh stock solutions of NADPH, GSH, GR, and GSSCys or [compound left out] were prepared in assay buffer containing 0.1 M Tris/HCl, 1 mM EDTA, pH 8.0 before each experiment. Both assays were performed with 0.1 mM NADPH and 1 U/ml ScGR. The following final protein concentrations were used for Y110F/H/A (5–150 nM), D144A/K (10 nM), E147A/K (10 nM), R153A/E (25–50 nM), ScGrx7^WP (20 nM), ScGrx7^loop (up to 1.4 µM), ScGrx7^WP+loop (up 2.6 µM), HsGrx5^C122S (up to 15 µM), HsGrx5^RR (up to 12 µM), HsGrx5^loop (up to 1.6 µM), and HsGrx5^RR+loop (up to 4.0 µM). For the GSSCys assays, GSH was varied between 50 µM and 1.5 mM at fixed GSSCys concentrations (25, 50, 100, and 150 µM). NADPH, GSH, and GR were mixed in assay buffer before Grx was added and a baseline was recorded for 30 s. All GSSCys assays were started by the addition of GSSCys. The absorbance of a reference cuvette containing all components but no Grx was measured in parallel and subtracted from the obtained Grx activity. For the [compound left out] assays, GSH was varied between 100 µM and 2.0 mM at fixed concentrations of [compound left out] (0.18, 0.37, 0.55, and 0.74 mM). NADPH, GSH, and [compound left out] were preincubated in assay buffer for 2 min before GR was added and a baseline was recorded for 30 s. All [compound left out] assays were started by the addition of enzyme. Kinetic data were analyzed in Excel and SigmaPlot 13 by nonlinear and linear regression according to Michaelis–Menten, Lineweaver–Burk, Eadie–Hofstee, and Hanes theory[11],[19],[25]. 13 Supplementary Figure 7 Supplementary Figure 7 | GSSCys assay steady-state kinetics of ScGrx7 wild-type enzyme and D144X mutants. (a) Michaelis-Menten plots of the GSH-dependent reaction velocity at different initial concentrations of GSSCys. […]

[2] = substrate: N[C@@H](CCC(=O)N[C@@H](CS)C(=O)NCC(=O)O)C(=O)O; remark: listed apart in the source
Description: as §1

[3] = substrate: N[C@@H](CCC(=O)N[C@@H](CSSC[C@H](N)C(=O)O)C(=O)NCC(=O)O)C(=O)O
Description: as §1

[4] = substrate: N[C@@H](CCC(=O)N[C@@H](CS)C(=O)NCC(=O)O)C(=O)O; remark: listed apart in the source
Description: as §1

[5] = substrate: N[C@@H](CCC(=O)N[C@@H](CSSC[C@H](N)C(=O)O)C(=O)NCC(=O)O)C(=O)O; remark: listed apart in the source
Description: as §1

[6] = substrate: N[C@@H](CCC(=O)N[C@@H](CS)C(=O)NCC(=O)O)C(=O)O; remark: listed apart in the source
Description: as §1

B1: ScGrx7 (Saccharomyces cerevisiae S288C) (protein)
chain: SVNESITTHHPDSLVTFDNSGNAPGTHQSVHDTVNTQDKEAEEVDKNSGDAEFDAAAEYNKIMEQSPMIVFSKTGCPYSKKLKALLTNSYTFSPSYYVVELDRHEHTKELQDQIEKVTGRRTVPNVIIGGTSRGGYTEIAELHKNDELLDSFKKWSDGAFTVKANSQSESA
notes: E. coli XL1-Blue, pQE30; N-terminal MRGS(H)6 tag
- Km [1]: 291 ± 17.6 µM
- kcat [1]: 75.2 ± 1.6 s⁻¹
- kcat/Km [1]: 258000 M⁻¹ s⁻¹
- Km [2]: 286 ± 45 µM
- kcat [2]: 79.9 ± 27 s⁻¹
- kcat/Km [2]: 273000 M⁻¹ s⁻¹
- Km [3]: 320 ± 91 µM
- kcat [3]: 239 ± 54 s⁻¹
- kcat/Km [3]: 757000 M⁻¹ s⁻¹
- Km [4]: 1479 µM
- kcat [4]: 334 s⁻¹
- Km [5]: 427 µM
- Km [6]: 244 ± 27.1 µM
- kcat [6]: 68 ± 2.4 s⁻¹
- kcat/Km [6]: 279000 M⁻¹ s⁻¹
